Reference: article PMC9712993, “A noncanonical RNA-binding domain of the fragile X protein, FMRP, elicits translational repression independent of mRNA G-quadruplexes”

Molecular target: RGG+CTD (Homo sapiens, UniProt Q06787 527-632)
Test: EMSA; 10 mM Tris-HCl, 100 mM KCl, 5 mM Mg(OAc)2, pH 7.4, BSA, on ice 1 h; mRNA EMSA 0.4 pmol RNA + 20 pmol protein in 18 ul; oligo EMSA 0.2 (G17: 0.4) pmol RNA + 22 pmol protein in 7 ul; FP 5.5 pmol RNA + 300 pmol protein in 100 ul; EMSA gels 4% PAGE 0.5x TBM (2.5 mM MgCl2), RT
Conditions: protein: recombinant; tags: N-MBP, C-His6; label: 5' FAM; single strand

UUUUUUUUUUUUUUUUUU (ssRNA) [(U)18]
binding result: binds
